{"source": "paper PMC2626280", "key": {"[1]": {"target": "purified skeletal muscle actin (rabbit) (UniProt P68135)", "experiment": "inhibition of actin polymerization (ultracentrifugation assay); apparent; skeletal muscle actin (18 µM) with increasing GST-RPEL (350–422 aa); 100 mM KCl, 2 mM MgCl2, 10 mM Tris-HCl pH 7.8, 20°C 60 min (legend: room temperature 30 minutes); 130,000 g 15 min; fraction of depolymerized actin by densitometry, nonlinear regression"}, "[2]": {"target": "actin (Oryctolagus cuniculus) (UniProt P68135)", "conditions": "cited from earlier work"}, "[3]": {"target": "actin (Oryctolagus cuniculus) (UniProt P68135)", "conditions": "cited from earlier work", "remark": "listed apart in the source"}, "[4]": {"target": "actin (Oryctolagus cuniculus) (UniProt P68135)", "conditions": "cited from earlier work", "remark": "listed apart in the source"}}, "note": "Like-named read-outs stand apart in the source and are kept apart here."}
{"substance": "GST-RPEL construct of scapinin, 350–422 aa (domain or fragment)", "values": [{"measurement": "Kd", "setting": "[1]", "result": 0.018, "unit": "µM"}, {"measurement": "stoichiometry N", "setting": "[1]", "result": 1.21}]}
{"substance": "MAL RPEL1 (from UniProt Q8K4J6)", "values": [{"measurement": "Kd", "setting": "[2]", "result": 5.4, "unit": "µM"}]}
{"substance": "MAL RPEL2 (from UniProt Q8K4J6)", "values": [{"measurement": "Kd", "setting": "[3]", "result": 2.3, "unit": "µM"}]}
{"substance": "MAL RPEL3 (from UniProt Q8K4J6)", "values": [{"measurement": "Kd", "setting": "[4]", "result": 18.8, "unit": "µM"}]}
